Molecular target: recombinant protein fibronectin-collagen peptide (FCP) (human)
Experiment: SPR; OpenSPR (Nicoya); FCP fixed on an NTA sensor chip by capture coupling, integrin β3 injected sequentially; PBS running buffer, 25 °C; binding and dissociation 250 s each; regeneration with hydrochloric acid pH 2.0; one-to-one diffusion-corrected model, TraceDrawer (the discussion says integrin β3 was the captured one)

integrin β3, sequence (P05106 27-718): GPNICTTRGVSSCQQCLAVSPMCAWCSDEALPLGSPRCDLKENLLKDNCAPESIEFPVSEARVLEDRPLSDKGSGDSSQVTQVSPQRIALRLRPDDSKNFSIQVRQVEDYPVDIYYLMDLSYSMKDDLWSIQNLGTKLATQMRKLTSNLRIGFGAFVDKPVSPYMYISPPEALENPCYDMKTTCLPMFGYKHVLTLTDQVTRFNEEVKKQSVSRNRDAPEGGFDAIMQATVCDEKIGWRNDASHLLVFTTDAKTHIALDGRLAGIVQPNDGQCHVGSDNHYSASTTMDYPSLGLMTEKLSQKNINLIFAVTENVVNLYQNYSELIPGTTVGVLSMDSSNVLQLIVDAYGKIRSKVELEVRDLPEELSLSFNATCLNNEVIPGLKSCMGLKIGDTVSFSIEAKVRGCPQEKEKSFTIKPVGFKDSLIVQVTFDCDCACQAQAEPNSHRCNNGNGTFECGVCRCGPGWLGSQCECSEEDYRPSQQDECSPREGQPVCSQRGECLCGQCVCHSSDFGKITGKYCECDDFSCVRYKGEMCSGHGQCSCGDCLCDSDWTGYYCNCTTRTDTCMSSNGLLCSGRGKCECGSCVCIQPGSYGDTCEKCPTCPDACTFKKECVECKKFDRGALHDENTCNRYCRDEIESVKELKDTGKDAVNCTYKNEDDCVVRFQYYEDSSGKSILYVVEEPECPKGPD

Kd: 53.7 nM
Substance: integrin β3 (from UniProt P05106 27-718) (receptor)

Source: PMC9151557
